Measurements published in the supplement of paper PMC6755084.

B1: minF1; a variant is named by its letters at N, in order (parent)
chain: GAGACCGCAACTGAAAAGTTGTTNNNNAANNNNGGNTNNATTTCTGCACGTAGAAGCAAAAGGC

Variants of: B1
Assay: fraction ligated after 30 min (ligated reads / total reads); higher = more ligase activity
Conditions: with F1*subA RNA substrate (template-directed ligation), 42 °C
Description: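 Chip-synthesised pool of minF1 ligase ribozyme variants (single and double substitutions, single to quadruple deletions, bulge and P2 designed variants) was transcribed with T7 and reacted as a pool with excess substrate F1*subA for 30 min at 42 C in 50 mM EPPS pH 8.5, 25 mM MgCl2. Ligated and unligated RNAs were separated by PAGE, barcoded by RT and deep sequenced; fraction ligated = ligated reads / total reads, relative activity = FL / FL of wild-type minF1 (0.76); sequencing FL correlated with PAGE (R2 = 0.98). Sequences are the DNA template of the ribozyme.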

| Variant | fraction ligated |
| --- | --- |
| GAGACCGCAACTGAAAAGTTGTTATCAAAATGAGGTTGAATTTCTGCACGTAGAAGCAAAAGGC | 0.00478 |
| GAGACCGCAACTGAAAAGTTGTTATCAGAAATTGGTTGAATTTCTGCACGTAGAAGCAAAAGGC | 0.00721 |
| GAGACCGCAACTGAAAAGTTGTTATCAAAAGGATGGGTTGTTTCTGCACGTAGAAGCAAAAGGC | 0.00198 |
| GAGACCGCAACTGAAAAGTTGTTATCAGAAATGGAGGTTGTTTCTGCACGTAGAAGCAAAAGGC | 0.00174 |
| GAGACCGCAACTGAAAAGTTGTTATCAGAAGATGGTTGAATTTCTGCACGTAGAAGCAAAAGGC | 0.00251 |
| GAGACCGCAACTGAAAAGTTGTTATCAGAAATGTGGGTTATTTCTGCACGTAGAAGCAAAAGGC | 0.000947 |
| GAGACCGCAACTGAAAAGTTGTTATCAGAATATGGGTTAATTTCTGCACGTAGAAGCAAAAGGC | 0.00429 |
| GAGACCGCAACTGAAAAGTTGTTATCAGAAATGAGGGTTATTTCTGCACGTAGAAGCAAAAGGC | 0.0014 |
| GAGACCGCAACTGAAAAGTTGTTATCAGAAATGAGGTTAATTTCTGCACGTAGAAGCAAAAGGC | 0.00267 |
| GAGACCGCAACTGAAAAGTTGTTATCAGAAATGTGGTTAATTTCTGCACGTAGAAGCAAAAGGC | 0.00212 |
| GAGACCGCAACTGAAAAGTTGTTATCAGAAGTGGGTTGAATTTCTGCACGTAGAAGCAAAAGGC | 0.00275 |
| GAGACCGCAACTGAAAAGTTGTTATCAGAAGATGGGTTAATTTCTGCACGTAGAAGCAAAAGGC | 0.00207 |
| GAGACCGCAACTGAAAAGTTGTTATCAAAAGGAGGTTGAATTTCTGCACGTAGAAGCAAAAGGC | 0.000429 |
| GAGACCGCAACTGAAAAGTTGTTATCAAAAGGATGGTTAATTTCTGCACGTAGAAGCAAAAGGC | 0.00413 |
| GAGACCGCAACTGAAAAGTTGTTATCAGAATGATGGGTTATTTCTGCACGTAGAAGCAAAAGGC | 0.00246 |
| GAGACCGCAACTGAAAAGTTGTTATCAAAAGAGGGTTGAATTTCTGCACGTAGAAGCAAAAGGC | 0.0037 |
| GAGACCGCAACTGAAAAGTTGTTATCAGAAATGATGGTTATTTCTGCACGTAGAAGCAAAAGGC | 0.00118 |
| GAGACCGCAACTGAAAAGTTGTTATCAGAATAGGGTTGAATTTCTGCACGTAGAAGCAAAAGGC | 0.00213 |
| GAGACCGCAACTGAAAAGTTGTTATCAGAAATGGGGTTGATTTCTGCACGTAGAAGCAAAAGGC | 0.00534 |
| GAGACCGCAACTGAAAAGTTGTTATCAGAAGGATGGTTGATTTCTGCACGTAGAAGCAAAAGGC | 0.00593 |
| GAGACCGCAACTGAAAAGTTGTTATCAGAAGGTGGTTGAATTTCTGCACGTAGAAGCAAAAGGC | 0.00202 |

| Variant | fraction ligated |
| --- | --- |
| GAGACCGCAACTGAAAAGTTGTTATCAGAAATGTGGGTTGTTTCTGCACGTAGAAGCAAAAGGC | 0.000795 |
| GAGACCGCAACTGAAAAGTTGTTATCAGAAGGATGGGTTATTTCTGCACGTAGAAGCAAAAGGC | 0.00162 |
| GAGACCGCAACTGAAAAGTTGTTATCAAAAGTGGGTTGAATTTCTGCACGTAGAAGCAAAAGGC | 0.00229 |
| GAGACCGCAACTGAAAAGTTGTTATCAGAATGAGGTTGAATTTCTGCACGTAGAAGCAAAAGGC | 0.000976 |
| GAGACCGCAACTGAAAAGTTGTTATCAAAAGGTGGGTTGATTTCTGCACGTAGAAGCAAAAGGC | 0.00687 |
| GAGACCGCAACTGAAAAGTTGTTATCAAAAGGTGGGTTAATTTCTGCACGTAGAAGCAAAAGGC | 0.00438 |
| GAGACCGCAACTGAAAAGTTGTTATCAGAATATGGGTTGATTTCTGCACGTAGAAGCAAAAGGC | 0.00686 |
| GAGACCGCAACTGAAAAGTTGTTATCAGAAGGATGGGTTGTTTCTGCACGTAGAAGCAAAAGGC | 0.000656 |
| GAGACCGCAACTGAAAAGTTGTTATCAGAAATGAGGGTTGTTTCTGCACGTAGAAGCAAAAGGC | 0.000551 |
| GAGACCGCAACTGAAAAGTTGTTATCAGAAGGAGGGTTGATTTCTGCACGTAGAAGCAAAAGGC | 0.00589 |
| GAGACCGCAACTGAAAAGTTGTTATCAGAAATATGGTTGATTTCTGCACGTAGAAGCAAAAGGC | 0.0037 |
| GAGACCGCAACTGAAAAGTTGTTATCAAAAGATGGGTTAATTTCTGCACGTAGAAGCAAAAGGC | 0.00295 |
| GAGACCGCAACTGAAAAGTTGTTATCAAAAGATGGGTTGATTTCTGCACGTAGAAGCAAAAGGC | 0.0129 |
| GAGACCGCAACTGAAAAGTTGTTATCAGAAATGGTGGGTTTTTCTGCACGTAGAAGCAAAAGGC | 0.00169 |
| GAGACCGCAACTGAAAAGTTGTTATCAAAAGGGGGTTGAATTTCTGCACGTAGAAGCAAAAGGC | 0.00247 |
| GAGACCGCAACTGAAAAGTTGTTATCAAAATAGGGTTGAATTTCTGCACGTAGAAGCAAAAGGC | 0.00321 |
| GAGACCGCAACTGAAAAGTTGTTATCAAAATGAGGGTTAATTTCTGCACGTAGAAGCAAAAGGC | 0.00236 |
| GAGACCGCAACTGAAAAGTTGTTATCAAAATGAGGGTTGATTTCTGCACGTAGAAGCAAAAGGC | 0.00492 |
| GAGACCGCAACTGAAAAGTTGTTATCAAAAATGGGTTGAATTTCTGCACGTAGAAGCAAAAGGC | 0.00252 |
| GAGACCGCAACTGAAAAGTTGTTATCAGAAGATGGGTTGATTTCTGCACGTAGAAGCAAAAGGC | 0.0128 |
| GAGACCGCAACTGAAAAGTTGTTATCAGAAATAGGTTGAATTTCTGCACGTAGAAGCAAAAGGC | 0.00291 |
